# Molecular target: T1, HLA-A*02:01 (peptide-receptive MHC class I monomer after UV cleavage of the UV-sensitive ligand) (human)
# T1 construct: MHC monomers loaded by UV-ligand exchange and captured on streptavidin plates
# Assay: UV ligand-exchange ELISA; exchange yield grade (+ >=10%, ++ >=20%, +++ >=50%, ++++ >=75%)
# Outline: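 Peptide–MHC complexes formed by UV-ligand exchange, cleaving a UV-sensitive peptide so the test peptide can bind. Exchange yield measured by ELISA: complexes captured on streptavidin-coated wells, diluted 100-fold, detected with HRP anti-β2m (1 h, 37 °C) and TMB at 450 nm, against refolded HLA-A*02:01/MLA-001 standards (15-500 ng/ml).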
Binder,peptide exchange yield [%],binding result
FLREYFERL [FLREYFERL (SEQ ID NO: 53)],≥ 75,–
KLLGSLQLL [KLLGSLQLL (SEQ ID NO: 93)],≥ 75,–
ILASIFETV [ILASIFETV (SEQ ID NO: 41)],≥ 75,–
GLFARIIMI [GLFARIIMI (SEQ ID NO: 87)],20 to 50,–
AALKYIPSV [AALKYIPSV (SEQ ID NO: 75)],50 to 75,–
YLTAEILELAGN [YLTAEILELAGN (SEQ ID NO: 38)],20 to 50,–
HLDEVFLEL [HLDEVFLEL (SEQ ID NO: 90)],50 to 75,–
FLVEVSNDV [FLVEVSNDV (SEQ ID NO: 64)],≥ 75,–
KILDEDLYI [KILDEDLYI (SEQ ID NO: 48)],50 to 75,–
GLFDNRSGLPEA [GLFDNRSGLPEA (SEQ ID NO: 88)],50 to 75,–
VLIEILQKA [VLIEILQKA (SEQ ID NO: 70)],≥ 75,–
VLGNALEGV [VLGNALEGV (SEQ ID NO: 37)],50 to 75,–
TLLAFPLLL [TLLAFPLLL (SEQ ID NO: 69)],≥ 75,–
VLLDYVGNVQL [VLLDYVGNVQL (SEQ ID NO: 71)],≥ 75,–
ALLDVSNNYGI [ALLDVSNNYGI (SEQ ID NO: 77)],≥ 75,–
SLDLRPLEV [SLDLRPLEV (SEQ ID NO: 74)],≥ 75,–
LLLDGLIYL [LLLDGLIYL (SEQ ID NO: 50)],50 to 75,–
GLTALHVAV [GLTALHVAV (SEQ ID NO: 89)],50 to 75,–
ALAPYLDLL [ALAPYLDLL (SEQ ID NO: 62)],≥ 75,–
SLSSERYYL [SLSSERYYL (SEQ ID NO: 35)],50 to 75,–
LIDDKGTIKL [LIDDKGTIKL (SEQ ID NO: 314)],20 to 50,–
HLSSTTAQV [HLSSTTAQV (SEQ ID NO: 91)],20 to 50,–
TLITLPLLFL [TLITLPLLFL (SEQ ID NO: 6)],50 to 75,–
VLNEDELPSV [VLNEDELPSV (SEQ ID NO: 32)],50 to 75,–

Binder,peptide exchange yield [%],binding result
VILDIPLLFET [VILDIPLLFET (SEQ ID NO: 36)],50 to 75,–
NLTDVSPDL [NLTDVSPDL (SEQ ID NO: 65)],50 to 75,–
ALADLVPVDVVV [ALADLVPVDVVV (SEQ ID NO: 76)],≥ 75,–
GLATIRAYL [GLATIRAYL (SEQ ID NO: 86)],50 to 75,–
YLGEEYPEV [YLGEEYPEV (SEQ ID NO: 73)],50 to 75,–
LLAGQATTAYF [LLAGQATTAYF (SEQ ID NO: 94)],50 to 75,–
FLVEEIFQT [FLVEEIFQT (SEQ ID NO: 46)],50 to 75,–
LLATVNVAL [LLATVNVAL (SEQ ID NO: 67)],≥ 75,–
FLQELQLEHA [FLQELQLEHA (SEQ ID NO: 84)],50 to 75,–
VLLEDVDAAFL [VLLEDVDAAFL (SEQ ID NO: 52)],≥ 75,–
SLLNKDLSL [SLLNKDLSL (SEQ ID NO: 61)],≥ 75,–
QLLPQGIVPAL [QLLPQGIVPAL (SEQ ID NO: 39)],50 to 75,–
GLAPAEVVVATVA [GLAPAEVVVATVA (SEQ ID NO: 85)],50 to 75,–
SLLIDVITV [SLLIDVITV (SEQ ID NO: 60)],50 to 75,–
LQIGDFVSV [LQIGDFVSV (SEQ ID NO: 57)],≥ 75,–
KLLFEIASA [KLLFEIASA (SEQ ID NO: 92)],50 to 75,–
YLFDEIDQA [YLFDEIDQA (SEQ ID NO: 80)],50 to 75,–
RLHREVAQV [RLHREVAQV (SEQ ID NO: 59)],50 to 75,–
VMAEAPPGV [VMAEAPPGV (SEQ ID NO: 310)],50 to 75,–
ILVEVDLVQA [ILVEVDLVQA (SEQ ID NO: 55)],≥ 75,–
ALIEEAYGL [ALIEEAYGL (SEQ ID NO: 63)],50 to 75,–
DIFDAMFSV [DIFDAMFSV (SEQ ID NO: 54)],–,binds
AMKEEKEQL [AMKEEKEQL (SEQ ID NO: 79)],20 to 50,–
VLQGLTFTL [VLQGLTFTL (SEQ ID NO: 5)],50 to 75,–

Binder,peptide exchange yield [%],binding result
FLIDGSSSV [FLIDGSSSV (SEQ ID NO: 82)],50 to 75,–
QLAPFLPQL [QLAPFLPQL (SEQ ID NO: 58)],50 to 75,–
KLAPIPVEL [KLAPIPVEL (SEQ ID NO: 66)],≥ 75,–
YLHRQVAAV [YLHRQVAAV (SEQ ID NO: 311)],50 to 75,–
AMEEAVAQV [AMEEAVAQV (SEQ ID NO: 78)],50 to 75,–
FILDDSALYL [FILDDSALYL (SEQ ID NO: 45)],50 to 75,–
QIAAFLFTV [QIAAFLFTV (SEQ ID NO: 68)],≥ 75,–
TLQEETAVYL [TLQEETAVYL (SEQ ID NO: 72)],20 to 50,–
ALLEGVKNV [ALLEGVKNV (SEQ ID NO: 43)],50 to 75,–
LLWEDGVTEA [LLWEDGVTEA (SEQ ID NO: 34)],50 to 75,–
FIFSYITAV [FIFSYITAV (SEQ ID NO: 81)],20 to 50,–
NLLGMIFSM [NLLGMIFSM (SEQ ID NO: 7)],≥ 75,–
GLQDLLFSL [GLQDLLFSL (SEQ ID NO: 56)],50 to 75,–
ALYAVIEKA [ALYAVIEKA (SEQ ID NO: 8)],50 to 75,–
FLNSVIVDL [FLNSVIVDL (SEQ ID NO: 40)],≥ 75,–
FLLDLDPLL [FLLDLDPLL (SEQ ID NO: 9)],50 to 75,–
SLLGNSPVL [SLLGNSPVL (SEQ ID NO: 51)],≥ 75,–
YLQDLVERA [YLQDLVERA (SEQ ID NO: 42)],≥ 75,–
LLANIVPIAMLV [LLANIVPIAMLV (SEQ ID NO: 33)],≥ 75,–
GLLPKLTAL [GLLPKLTAL (SEQ ID NO: 47)],50 to 75,–
TLLGFFLAKV [TLLGFFLAKV (SEQ ID NO: 4)],20 to 50,–
FIIEEQSFL [FIIEEQSFL (SEQ ID NO: 44)],50 to 75,–
TILGDPQILL [TILGDPQILL (SEQ ID NO: 49)],≥ 75,–
FLMDDNMSNTL [FLMDDNMSNTL (SEQ ID NO: 83)],50 to 75,–
